The text below walks through data of publication PMC9639671 (DNA repair, 2022).

For this assay, the target named is S. cerevisiae Msh2-Msh6 (S. cerevisiae, UniProt P25847 1-964; Q03834 1-1242). Put plainly: SPR.
S. cerevisiae Msh2-Msh6, sequence (P25847 whole entry, chain 1 of 2): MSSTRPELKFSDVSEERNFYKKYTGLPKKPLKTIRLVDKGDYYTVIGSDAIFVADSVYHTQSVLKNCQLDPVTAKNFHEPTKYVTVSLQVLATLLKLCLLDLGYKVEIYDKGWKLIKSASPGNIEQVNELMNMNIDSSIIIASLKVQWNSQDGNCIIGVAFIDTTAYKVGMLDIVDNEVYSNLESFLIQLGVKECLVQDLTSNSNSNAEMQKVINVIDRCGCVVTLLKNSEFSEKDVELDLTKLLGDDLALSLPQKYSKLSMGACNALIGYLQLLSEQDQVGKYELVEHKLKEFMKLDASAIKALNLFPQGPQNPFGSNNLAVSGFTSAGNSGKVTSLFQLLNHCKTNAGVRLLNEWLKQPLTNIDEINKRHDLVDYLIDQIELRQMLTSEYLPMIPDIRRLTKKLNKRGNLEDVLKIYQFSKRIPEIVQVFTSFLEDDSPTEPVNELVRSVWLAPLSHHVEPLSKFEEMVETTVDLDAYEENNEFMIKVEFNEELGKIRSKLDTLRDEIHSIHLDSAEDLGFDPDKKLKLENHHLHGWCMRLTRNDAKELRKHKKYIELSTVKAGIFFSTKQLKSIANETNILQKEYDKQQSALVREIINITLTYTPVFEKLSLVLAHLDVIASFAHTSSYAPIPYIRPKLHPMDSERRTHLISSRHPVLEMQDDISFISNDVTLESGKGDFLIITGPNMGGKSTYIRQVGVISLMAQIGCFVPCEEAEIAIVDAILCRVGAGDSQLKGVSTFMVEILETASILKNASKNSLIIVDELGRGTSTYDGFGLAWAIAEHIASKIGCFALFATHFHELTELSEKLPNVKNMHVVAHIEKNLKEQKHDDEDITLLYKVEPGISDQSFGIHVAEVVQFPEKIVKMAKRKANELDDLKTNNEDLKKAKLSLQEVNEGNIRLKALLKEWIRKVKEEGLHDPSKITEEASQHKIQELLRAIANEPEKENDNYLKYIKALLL
S. cerevisiae Msh2-Msh6, sequence (Q03834 whole entry, chain 2 of 2): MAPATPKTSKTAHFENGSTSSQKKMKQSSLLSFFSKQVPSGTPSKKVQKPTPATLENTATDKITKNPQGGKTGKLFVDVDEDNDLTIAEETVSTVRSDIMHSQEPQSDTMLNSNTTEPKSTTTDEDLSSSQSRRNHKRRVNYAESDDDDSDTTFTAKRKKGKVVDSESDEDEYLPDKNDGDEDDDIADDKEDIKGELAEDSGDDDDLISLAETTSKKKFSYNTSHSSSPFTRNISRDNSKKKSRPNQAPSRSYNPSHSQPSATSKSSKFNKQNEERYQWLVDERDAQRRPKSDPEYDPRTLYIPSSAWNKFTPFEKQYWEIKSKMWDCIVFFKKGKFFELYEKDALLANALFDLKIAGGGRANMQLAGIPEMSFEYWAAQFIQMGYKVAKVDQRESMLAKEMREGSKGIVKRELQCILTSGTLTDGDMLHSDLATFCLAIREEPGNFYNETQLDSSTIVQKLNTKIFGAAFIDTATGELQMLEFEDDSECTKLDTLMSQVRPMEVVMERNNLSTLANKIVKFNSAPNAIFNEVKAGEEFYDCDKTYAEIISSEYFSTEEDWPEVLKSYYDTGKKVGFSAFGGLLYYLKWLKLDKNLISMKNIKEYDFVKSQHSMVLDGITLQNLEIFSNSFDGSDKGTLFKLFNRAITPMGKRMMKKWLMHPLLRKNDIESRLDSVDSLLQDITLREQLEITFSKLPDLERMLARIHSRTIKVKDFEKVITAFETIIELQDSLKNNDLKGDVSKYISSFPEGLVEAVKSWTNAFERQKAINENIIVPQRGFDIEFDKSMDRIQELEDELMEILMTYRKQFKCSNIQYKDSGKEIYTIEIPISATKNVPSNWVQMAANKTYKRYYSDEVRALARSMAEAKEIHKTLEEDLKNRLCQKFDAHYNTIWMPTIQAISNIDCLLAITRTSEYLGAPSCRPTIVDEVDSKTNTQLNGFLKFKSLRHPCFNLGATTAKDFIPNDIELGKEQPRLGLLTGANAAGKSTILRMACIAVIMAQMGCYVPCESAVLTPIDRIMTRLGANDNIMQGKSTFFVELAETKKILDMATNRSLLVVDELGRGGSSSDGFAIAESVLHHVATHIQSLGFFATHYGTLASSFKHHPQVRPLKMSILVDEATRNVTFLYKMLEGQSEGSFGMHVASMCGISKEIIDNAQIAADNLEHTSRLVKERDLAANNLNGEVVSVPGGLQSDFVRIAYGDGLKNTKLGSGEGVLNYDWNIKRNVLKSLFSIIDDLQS

B1: wild-type S. cerevisiae Mlh1-Pms1 (complex)
chain 1: MSLRIKALDASVVNKIAAGEIIISPVNALKEMMENSIDANATMIDILVKEGGIKVLQITDNGSGINKADLPILCERFTTSKLQKFEDLSQIQTYGFRGEALASISHVARVTVTTKVKEDRCAWRVSYAEGKMLESPKPVAGKDGTTILVEDLFFNIPSRLRALRSHNDEYSKILDVVGRYAIHSKDIGFSCKKFGDSNYSLSVKPSYTVQDRIRTVFNKSVASNLITFHISKVEDLNLESVDGKVCNLNFISKKSISPIFFINNRLVTCDLLRRALNSVYSNYLPKGNRPFIYLGIVIDPAAVDVNVHPTKREVRFLSQDEIIEKIANQLHAELSAIDTSRTFKASSISTNKPESLIPFNDTIESDRNRKSLRQAQVVENSYTTANSQLRKAKRQENKLVRIDASQAKITSFLSSSQQFNFEGSSTKRQLSEPKVTNVSHSQEAEKLTLNESEQPRDANTINDNDLKDQPKKKQKLGDYKVPSIADDEKNALPISKDGYIRVPKERVNVNLTSIKKLREKVDDSIHRELTDIFANLNYVGVVDEERRLAAIQHDLKLFLIDYGSVCYELFYQIGLTDFANFGKINLQSTNVSDDIVLYNLLSEFDELNDDASKEKIISKIWDMSSMLNEYYSIELVNDGLDNDLKSVKLKSLPLLLKGYIPSLVKLPFFIYRLGKEVDWEDEQECLDGILREIALLYIPDMVPKVDTSDASLSEDEKAQFINRKEHISSLLEHVLFPCIKRRFLAPRHILKDVVEIANLPDLYKVFERC
chain 2: MTQIHQINDIDVHRITSGQVITDLTTAVKELVDNSIDANANQIEIIFKDYGLESIECSDNGDGIDPSNYEFLALKHYTSKIAKFQDVAKVQTLGFRGEALSSLCGIAKLSVITTTSPPKADKLEYDMVGHITSKTTTSRNKGTTVLVSQLFHNLPVRQKEFSKTFKRQFTKCLTVIQGYAIINAAIKFSVWNITPKGKKNLILSTMRNSSMRKNISSVFGAGGMRGLEEVDLVLDLNPFKNRMLGKYTDDPDFLDLDYKIRVKGYISQNSFGCGRNSKDRQFIYVNKRPVEYSTLLKCCNEVYKTFNNVQFPAVFLNLELPMSLIDVNVTPDKRVILLHNERAVIDIFKTTLSDYYNRQELALPKRMCSQSEQQAQKRLKTEVFDDRSTTHESDNENYHTARSESNQSNHAHFNSTTGVIDKSNGTELTSVMDGNYTNVTDVIGSECEVSVDSSVVLDEGNSSTPTKKLPSIKTDSQNLSDLNLNNFSNPEFQNITSPDKARSLEKVVEEPVYFDIDGEKFQEKAVLSQADGLVFVDNECHEHTNDCCHQERRGSTDTEQDDEADSIYAEIEPVEINVRTPLKNSRKSISKDNYRSLSDGLTHRKFEDEILEYNLSTKNFKEISKNGKQMSSIISKRKSEAQENIIKNKDELEDFEQGEKYLTLTVSKNDFKKMEVVGQFNLGFIIVTRKVDNKYDLFIVDQHASDEKYNFETLQAVTVFKSQKLIIPQPVELSVIDELVVLDNLPVFEKNGFKLKIDEEEEFGSRVKLLSLPTSKQTLFDLGDFNELIHLIKEDGGLRRDNIRCSKIRSMFAMRACRSSIMIGKPLNKKTMTRVVHNLSELDKPWNCPHGRPTMRHLMELRDWSSFSKDYEI
For the molecule B1, the binding result is reported as “binds”.

B2: Mlh1-K54C-Pms1 mutant complex (complex, S. cerevisiae)
chain 1: MSLRIKALDASVVNKIAAGEIIISPVNALKEMMENSIDANATMIDILVKEGGICVLQITDNGSGINKADLPILCERFTTSKLQKFEDLSQIQTYGFRGEALASISHVARVTVTTKVKEDRCAWRVSYAEGKMLESPKPVAGKDGTTILVEDLFFNIPSRLRALRSHNDEYSKILDVVGRYAIHSKDIGFSCKKFGDSNYSLSVKPSYTVQDRIRTVFNKSVASNLITFHISKVEDLNLESVDGKVCNLNFISKKSISPIFFINNRLVTCDLLRRALNSVYSNYLPKGNRPFIYLGIVIDPAAVDVNVHPTKREVRFLSQDEIIEKIANQLHAELSAIDTSRTFKASSISTNKPESLIPFNDTIESDRNRKSLRQAQVVENSYTTANSQLRKAKRQENKLVRIDASQAKITSFLSSSQQFNFEGSSTKRQLSEPKVTNVSHSQEAEKLTLNESEQPRDANTINDNDLKDQPKKKQKLGDYKVPSIADDEKNALPISKDGYIRVPKERVNVNLTSIKKLREKVDDSIHRELTDIFANLNYVGVVDEERRLAAIQHDLKLFLIDYGSVCYELFYQIGLTDFANFGKINLQSTNVSDDIVLYNLLSEFDELNDDASKEKIISKIWDMSSMLNEYYSIELVNDGLDNDLKSVKLKSLPLLLKGYIPSLVKLPFFIYRLGKEVDWEDEQECLDGILREIALLYIPDMVPKVDTSDASLSEDEKAQFINRKEHISSLLEHVLFPCIKRRFLAPRHILKDVVEIANLPDLYKVFERC
chain 2: MTQIHQINDIDVHRITSGQVITDLTTAVKELVDNSIDANANQIEIIFKDYGLESIECSDNGDGIDPSNYEFLALKHYTSKIAKFQDVAKVQTLGFRGEALSSLCGIAKLSVITTTSPPKADKLEYDMVGHITSKTTTSRNKGTTVLVSQLFHNLPVRQKEFSKTFKRQFTKCLTVIQGYAIINAAIKFSVWNITPKGKKNLILSTMRNSSMRKNISSVFGAGGMRGLEEVDLVLDLNPFKNRMLGKYTDDPDFLDLDYKIRVKGYISQNSFGCGRNSKDRQFIYVNKRPVEYSTLLKCCNEVYKTFNNVQFPAVFLNLELPMSLIDVNVTPDKRVILLHNERAVIDIFKTTLSDYYNRQELALPKRMCSQSEQQAQKRLKTEVFDDRSTTHESDNENYHTARSESNQSNHAHFNSTTGVIDKSNGTELTSVMDGNYTNVTDVIGSECEVSVDSSVVLDEGNSSTPTKKLPSIKTDSQNLSDLNLNNFSNPEFQNITSPDKARSLEKVVEEPVYFDIDGEKFQEKAVLSQADGLVFVDNECHEHTNDCCHQERRGSTDTEQDDEADSIYAEIEPVEINVRTPLKNSRKSISKDNYRSLSDGLTHRKFEDEILEYNLSTKNFKEISKNGKQMSSIISKRKSEAQENIIKNKDELEDFEQGEKYLTLTVSKNDFKKMEVVGQFNLGFIIVTRKVDNKYDLFIVDQHASDEKYNFETLQAVTVFKSQKLIIPQPVELSVIDELVVLDNLPVFEKNGFKLKIDEEEEFGSRVKLLSLPTSKQTLFDLGDFNELIHLIKEDGGLRRDNIRCSKIRSMFAMRACRSSIMIGKPLNKKTMTRVVHNLSELDKPWNCPHGRPTMRHLMELRDWSSFSKDYEI
With B2, the binding result is “binds”.
